{"source": "patent US7521540B2", "about": "“CYR61 compositions and methods” (Munin Corporation, priority 1996, dated 2009)", "molecules": {"B1": {"name": "Cyr61: Cysteine-rich ECM signaling protein; murine sequence SEQ ID NO:2, recombinant from Baculovirus-infected Sf9 cells (protein, listed as Mus musculus)", "chain": "MSSSTFRTLAVAVTLLHLTRLALSTCPAACHCPLEAPKCAPGVGLVRDGCGCCKVCAKQLNEDCSKTQPCDHTKGLECNFGASSTALKGICRAQSEGRPCEYNSRIYQNGESFQPNCKHQCTCIDGAVGCIPLCPQELSLPNLGCPNPRLVKVSGQCCEEWVCDEDSIKDSLDDQDDLLGLDASEVELTRNNELIAIGKGSSLKRLPVFGTEPRVLFNPLHAHGQKCIVQTTSWSQCSKSCGTGISTRVTNDNPECRLVKETRICEVRPCGQPVYSSLKKGKKCSKTKKSPEPVRFTYAGCSSVKKYRPKYCGSCVDGRCCTPLQTRTVKMRFRCEDGEMFSKNVMMIQSCKCNYNCPHPNEASFRLYSLFNDIHKFRD"}}, "key": {"αVβ3 integrin": {"target": "T1, αVβ3 integrin (Homo sapiens, UniProt P05106+P06756)", "T1 construct": "αVβ3 integrin purification from HUVE cell lysates was done as described in Pytela et al; endogenous in cells; host or cells: HUVE cells", "T1 sequence (P06756 31-889 limits assumed)": "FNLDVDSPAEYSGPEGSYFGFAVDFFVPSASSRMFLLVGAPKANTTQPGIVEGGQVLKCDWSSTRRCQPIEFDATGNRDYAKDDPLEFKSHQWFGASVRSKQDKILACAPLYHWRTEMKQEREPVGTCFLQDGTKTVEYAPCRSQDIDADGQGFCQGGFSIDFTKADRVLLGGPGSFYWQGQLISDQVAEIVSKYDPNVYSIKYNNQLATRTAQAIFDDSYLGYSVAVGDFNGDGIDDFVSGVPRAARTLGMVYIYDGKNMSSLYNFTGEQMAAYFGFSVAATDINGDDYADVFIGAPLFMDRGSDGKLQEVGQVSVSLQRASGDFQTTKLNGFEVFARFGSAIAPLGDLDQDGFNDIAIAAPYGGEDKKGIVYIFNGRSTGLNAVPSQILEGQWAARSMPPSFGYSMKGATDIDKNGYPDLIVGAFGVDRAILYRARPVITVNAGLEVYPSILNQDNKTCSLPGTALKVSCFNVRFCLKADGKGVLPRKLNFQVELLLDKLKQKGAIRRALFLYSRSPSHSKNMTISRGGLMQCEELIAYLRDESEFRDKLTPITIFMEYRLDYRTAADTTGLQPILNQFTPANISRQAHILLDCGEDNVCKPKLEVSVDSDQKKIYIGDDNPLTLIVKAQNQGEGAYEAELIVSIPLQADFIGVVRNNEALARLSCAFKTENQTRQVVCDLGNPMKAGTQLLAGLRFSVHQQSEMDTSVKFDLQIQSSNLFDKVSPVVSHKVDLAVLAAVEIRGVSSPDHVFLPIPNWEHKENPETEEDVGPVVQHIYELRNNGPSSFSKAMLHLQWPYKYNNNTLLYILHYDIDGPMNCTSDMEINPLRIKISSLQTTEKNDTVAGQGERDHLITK", "T1 sequence (P06756 891-1048 partner limits assumed)": "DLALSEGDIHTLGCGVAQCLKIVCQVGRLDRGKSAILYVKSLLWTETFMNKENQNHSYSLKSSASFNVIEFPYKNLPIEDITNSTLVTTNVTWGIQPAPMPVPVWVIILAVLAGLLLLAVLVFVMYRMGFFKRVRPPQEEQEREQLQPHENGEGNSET", "T1 sequence (P05106 27-788)": "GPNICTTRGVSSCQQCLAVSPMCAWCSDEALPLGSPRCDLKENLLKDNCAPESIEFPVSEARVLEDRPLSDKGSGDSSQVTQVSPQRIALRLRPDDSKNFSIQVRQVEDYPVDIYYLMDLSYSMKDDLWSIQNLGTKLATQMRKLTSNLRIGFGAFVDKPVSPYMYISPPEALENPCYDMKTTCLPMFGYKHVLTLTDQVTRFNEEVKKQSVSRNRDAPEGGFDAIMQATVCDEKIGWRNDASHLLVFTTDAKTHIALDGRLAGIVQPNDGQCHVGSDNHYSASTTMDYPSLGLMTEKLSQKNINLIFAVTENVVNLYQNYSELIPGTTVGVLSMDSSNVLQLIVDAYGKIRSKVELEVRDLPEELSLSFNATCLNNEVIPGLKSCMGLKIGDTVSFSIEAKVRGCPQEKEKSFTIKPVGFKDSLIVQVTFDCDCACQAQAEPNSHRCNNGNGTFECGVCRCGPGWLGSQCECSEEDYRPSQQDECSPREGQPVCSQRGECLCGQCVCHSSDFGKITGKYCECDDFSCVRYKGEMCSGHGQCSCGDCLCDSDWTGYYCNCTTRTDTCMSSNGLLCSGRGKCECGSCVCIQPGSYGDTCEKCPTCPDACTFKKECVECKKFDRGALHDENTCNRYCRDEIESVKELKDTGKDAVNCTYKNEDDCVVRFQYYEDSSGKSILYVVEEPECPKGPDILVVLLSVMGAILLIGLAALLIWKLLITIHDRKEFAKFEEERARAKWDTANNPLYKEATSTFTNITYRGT", "assay": "Integrin binding assay (ligand-receptor ELISA)", "details": "1 μg/ml Cyr61 or 0.1 μg/ml vitronectin", "method": "αVβ3 integrin purification from HUVE cell lysates was done as described in Pytela et al., Meth. Enzynmol., 144:475-489 (1987). Briefly, 10^8 cells were lysed in 1 ml of PBS containing 1 mM CaCl2, 1 mM MgCl2, 0.5 mM PMSF and 100 mM octylglucoside. […] The purity of the integrin was determined by SDS-PAGE under non-reducing conditions, followed by silver staining.\nThe integrin binding assay was developed in accordance with the disclosures in Brooks et al., Cell 85:683-693 (1996), and Lam, S. C-T (1992). […] Bound proteins were detected by specific polyclonal antisera (anti-Cyr61 antiserum was diluted 1:500 and anti-vitronectin antiserum was diluted 1:1000 in PBS containing 1 mM CaCl2, 1 mM MgCl2, and 5 mg/ml BSA) followed by a secondary antibody-horseradish peroxidase conjugate (1:20000 in the same buffer). […] Horseradish peroxidase (HRP) was detected with an HRP immunoassay kit (Bio-Rad Laboratories). The colorimetric reaction was developed for 15-30 minutes at room temperature, stopped by the addition of H2SO4, and the absorbance at 450 nm was measured. […]"}, "HUVE cells": {"system": "HUVE cells", "assay": "Gel matrix invasion and tube formation", "type": "cell-based, human", "details": "collagen or fibrin gels", "method": "The end product of in vitro angiogenesis is a well-defined network of capillary-like tubes. When cultured on gel matrices, e.g., collagen, fibrin, or Matrigel gels, endothelial cells must first invade the matrix before forming mature vessels.\nIn some wells, Cyr61 was mixed into the gel matrix before gelation (final concentration 10 μg/ml), while in other wells, Cyr61 was not in the gel matrix but was added as part of the nutrient medium (similar range of concentrations as in the matrix) after the cells reached confluency. HUVE cells were seeded onto the gel matrix surface at 5×10^4 cells per well in Ham's F12K medium [GIBCO-BRL, Inc.] containing 10% fetal bovine serum, 100 μg/ml heparin, and 30 μg/ml endothelial cell growth factor. When the cells reached confluency, the medium was removed, the cells were rinsed with PBS, and fresh medium without endothelial cell growth factor was supplied. Some cultures received purified recombinant Cyr61, while others received Cyr61 and polyclonal anti-Cyr61 antibodies. […]\nInvasion of the gel matrix was quantified about 4-7 days after treatment of the confluent cultures. […] Invasion was quantified by measuring the total length of all cell cords that penetrated beneath the surface monolayer. Results were expressed as the mean length in microns per field for at least 3 randomly selected fields from each of at least 3 separate experiments. […]"}, "Limb mesenchymal cells": {"system": "Limb mesenchymal cells", "assay": "Chondrogenesis, [35S]-sulfate incorporation in micromass cultures", "type": "cell-based, mouse", "method": "Cell proliferation was assessed by the thymidine assay, described above, and by microscopic cell counts. Chondrogenesis was assessed by quantifying the incorporation of [^35S]-sulfate (ICN Biomedicals, Inc.) into sulfated glycosaminoglycans, and by qualitatively determnining the extent of chondrogenesis by cell staining with Alcian Blue. Cultures, described above, were labeled with 2.5 μCi/ml [^35S]-sulfate for 18 hours, washed twice in PBS, fixed with Kahle's fixative (Pepper et al., J. Cell Sci. 109:73-83 [1995]) and stained for 18 hours in 0.5% Alcian Blue, pH 1.0. The extent of chondrogenesis is correlated with the intensity of Alcian Blue staining. San Antonio et at., Dev. Biol. 115:313-324 (1986).\nChondrogenic differentiation was quantitated by incorporation of […] (ICN) into sulfated glycosaminoglycans and assessed qualitatively by Alcian Blue staining. Cultures were radiolabeled with 2.5 μCi/ml [^35S]-sulfate for 18 hr, fixed with Kahle's fixative and stained with 0.5% Alcian Blue, pH 1.0 (Lev et al., 1964). The extent of chondrogenesis is correlated with the intensity of Alcian Blue staining (San Antonio et al., 1986). [^35S]-Sulfate incorporation in the fixed cell layer was quanititated by liquid scintillation counting.\nAs shown above in Example 11, anti-Cyr61 antibodies can neutlralize both the cell adhesion and DNA-synthesis enhancement activities of Cyr61. Anti-Cyr61 antibodies were added to the mesenchymal cell culture media or mixed the cell suspension prior to plating. […] These observations were correlated with decreased Alcian Blue staining."}}, "data": [{"molecule": "B1", "values": [{"measurement": "binding to immobilized αVβ3 integrin", "setting": "αVβ3 integrin", "value": "bound to the immobilized integrin"}, {"measurement": "matrix invasion and tube formation", "setting": "HUVE cells", "value": "induce matrix invasion and tube formation"}, {"measurement": "increase in [35S]-sulfate incorporation", "setting": "Limb mesenchymal cells; 0.3 μg/ml", "value": 1.5, "unit": "fold"}, {"measurement": "increase in [35S]-sulfate incorporation", "setting": "Limb mesenchymal cells; 5 μg/ml (120 nM)", "value": 3.5, "unit": "fold"}, {"measurement": "cartilage formation", "setting": "Limb mesenchymal cells; 10 μg/ml", "value": "formed a more massive mound of cartilage"}, {"measurement": "increase in normalized sulfate incorporation over control", "setting": "Limb mesenchymal cells; sulfate/cell number ratio", "value": "approximately 2 fold"}]}]}
